Results published in patent US20130224224A1 (Boehringer Ingelheim, published 2013).
Changes are numbered by the printed parent chain. Read-outs that look alike come from different tables or passages of the source.

B1: CX3CR1BIIPMP54D5 (VHH)
VHH: EVQLVESGGGSVQAGESLRLSCAASGSIFSSNAMAWYRQAPPGKQRDLVALINSVGITKYADSVKGRFTISSDNAKNTVYLEMNSLKPEDTAVYYCTSDGRRGWDTRYWGQGTQVTVSS
notes: also called 54D05; CX3CR1BII54D5; not shown: C-terminal c-myc and His6 tags
B2: CX3CR1BIIPMP54A7 (VHH)
VHH: EVQLVESGGGSVQAGESLRLSCAASGTIFSSNAMAWYRQAPGKQRDLVAGINSVDITKYADSVKGRFTISRDNAKNTVYLQMNSLKPEDTAVYYCTSDPRRGWNTRYWGQGTQVTVSS
notes: also called 54A07; not shown: C-terminal c-myc and His6 tags
B3: CX3CR1BIIPMP54A12 (VHH)
VHH: B2 VHH with T27S, G50V, D55G, R71G, P99A, N104D
notes: also called CX3CR1BII54A12; not shown: C-terminal c-myc and His6 tags
B4: CX3CR1BII007 (VHH)
chain: EVQLVESGGGLVQAGGSLRLSCVASGRTFSSYAMGWFRQAPGKERAFVAGISGSASRKYYADSVKGRFTVSRDNARNTVYLQMNSLKPEDTAVYYCAASNSYPKVQFDYYGQGTQVTVSSGGGGSGGGGSGGGGSGGGGSGGGGSGGGGSGGGGSKVQLVESGGGLVQPGGSLRLSCATSGTIFSNNAMGWYRQAPGKKRDLVASISSSGSTNYADSVKGRFTVSRDNDKNTGYLQMNSLKPEDTGVYYCTLDARRGWNTAYWGQGAQVTVSS
notes: expressed in E. coli as described for the monovalent VHHs (c-myc, His6 tags there)
B5: CX3CR1BII009 (VHH)
chain: KVQLVESGGGLVQPGGSLRLSCATSGTIFSNNAMGWYRQAPGKKRDLVASISSSGSTNYADSVKGRFTVSRDNDKNTGYLQMNSLKPEDTGVYYCTLDARRGWNTAYWGQGAQVTVSSGGGGSGGGGSGGGGSGGGGSGGGGSGGGGSGGGGSEVQLVESGGGLVQAGGSLRLSCVASGRTFSSYAMGWFRQAPGKERAFVAGISGSASRKYYADSVKGRFTVSRDNARNTVYLQMNSLKPEDTAVYYCAASNSYPKVQFDYYGQGTQVTVSS
notes: expressed in E. coli as described for the monovalent VHHs
B6: CX3CR1BIIPMP18E6 (VHH)
VHH: KVQLVESGGGLVQPGGSLRLSCATSGTIFSNNAMGWYRQAPGKKRDLVASISSSGSTNYADSVKGRFTVSRDNDKNTGYLQMNSLKPEDTGVYYCTLDARRGWNTAYWGQGAQVTVSS
notes: family 13; also called 18E06; CX3CR1BII18E06; not shown: C-terminal c-myc and His6 tags

Tests used:
[1] = target: T1, human CX3CR1 (human, UniProt P49238 1-355); test: A647-fractalkine competition FACS, HEK293T human CX3CR1
T1 construct: overexpressed on CHO, BA/F3 or HEK293T cells; also called huCX3CR1; hCX3CR1
T1 sequence: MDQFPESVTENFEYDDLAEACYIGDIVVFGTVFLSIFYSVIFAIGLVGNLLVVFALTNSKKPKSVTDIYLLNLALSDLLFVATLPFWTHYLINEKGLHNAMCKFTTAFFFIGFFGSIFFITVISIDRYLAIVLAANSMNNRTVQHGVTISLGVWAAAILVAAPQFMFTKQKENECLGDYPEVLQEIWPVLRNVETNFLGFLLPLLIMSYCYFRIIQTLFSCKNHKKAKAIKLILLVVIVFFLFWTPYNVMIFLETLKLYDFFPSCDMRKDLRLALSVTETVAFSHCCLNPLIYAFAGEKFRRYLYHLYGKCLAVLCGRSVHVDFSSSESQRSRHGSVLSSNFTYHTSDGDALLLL
Source text: (§1) Periplasmic extracts were screened in a human CX3CR1/human Fractalkine FACS competition assay to assess the blocking capacity of the expressed VHHs. Human CX3CR1 was presented on CHO cells overexpressing CX3CR1. Both a setup using cells harvested from an actively growing culture and a setup using frozen cells was used. As a detection reagent labeled fractalkine was used (R&D Systems, Minneapolis, Minn., USA) labeled with alexa647 (A647-Fractalkine) at a degree of labeling of 1. To setup the assay, first a titration series of the labeled fractalkine was performed on the CHO-huCX3CR1 cells in order to determine the EC50 value for binding. Initially screening was performed at a higher concentration of fractalkine (3 nM) to increase the assay robustness. To increase the sensitivity of the screening to a maximum, the EC30 concentration (1 nM) was chosen for subsequent screening. In brief 50 μl of periplasmic extract was added to 6 nM labeled fractalkine (50 μ;) and 200 000 CHO-huCX3CR1 cells. After one hour incubation at 4 C, cells were washed three times before read out was performed on a FACS Array (Becton Dickinson). First a gate was set on the intact cells as determined from the scatter profile. Next, dead cells were gated out by their fluorescence profile from the PI stain (Sigma, St Louis, US). The fluorescence profile from the alexa647 label was determined for each sample and used for calculation of blocking capacity. As controls, conditions were taken along where there was no VHH present in the peri extract or a known irrelevant VHH and samples were included where excess cold fractalkine was included. For each sample the percentage block was determined using the control samples to determine the assay window.
(§2) For later identified VHHs, a human Fractalkine competition FACS was set up using human or cynomolgus CX3CR1 expressed in HEK293T cells. Both the human and the cynomolgus receptor was transiently transfected in HEK293T cells and transfections were matched by the binding of the labeled ligand, human fractalkine. The competition was evaluated using the EC30 concentration of fractalkine and as such obtained IC50 values are a good estimate of the Ki value, a measure for affinity (Table 22). The experiment was performed as described in Example 4.

[2] = target: T2, cynomolgus CX3CR1 (cynomolgus, UniProt P49238 1-355 (human entry)); test: A647-fractalkine competition FACS, HEK293T cynomolgus CX3CR1
T2 construct: transiently expressed on HEK293T cells; also called cyCX3CR1; cyno CX3CR1
T2 chain: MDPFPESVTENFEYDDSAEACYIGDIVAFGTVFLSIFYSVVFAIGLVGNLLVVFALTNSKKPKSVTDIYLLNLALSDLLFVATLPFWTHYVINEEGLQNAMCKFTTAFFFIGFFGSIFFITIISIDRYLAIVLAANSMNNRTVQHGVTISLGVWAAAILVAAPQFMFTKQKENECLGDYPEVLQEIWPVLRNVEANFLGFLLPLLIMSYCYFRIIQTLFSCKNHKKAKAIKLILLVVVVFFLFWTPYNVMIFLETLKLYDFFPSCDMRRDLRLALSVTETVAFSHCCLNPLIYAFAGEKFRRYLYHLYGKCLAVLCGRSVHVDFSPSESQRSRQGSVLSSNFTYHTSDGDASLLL
Source text: as §1, §2

[3] = target: T1, human CX3CR1; test: A647-fractalkine competition FACS, HEK293-huCX3CR1
Source text: as §1
(§3) The blocking capacity towards the ligand fractalkine of the VHHs was evaluated in a human CX3CR1 competition FACS as outlined in Example 4. Either CHO-huCX3CR1 cells, BA/F3-huCX3CR1 cells or transiently transfected HEK293T cells were used. The amount of labeled ligand used in the different competition setups was also varied. The IC₅₀ values for VHHs blocking the interaction of human fractalkine to human CX3CR1 are depicted in Table 19.

[4] = target: T1, human CX3CR1; test: FACS binding on human CX3CR1 cells, anti-c-myc detection
Method: (§4) Initially, a FACS based binding setup was used to evaluate the cynomolgus cross reactivity. For this, the VHHs were incubated with the respective cells for 30 minutes at 4° C. followed by three wash steps and subsequently incubated with the detection reagents. As detection, a mouse anti-cmyc antibody (Serotec, MCA2200) followed by a goat anti-mouse antibody coupled to PE (Jackson 115-116-071) was used, each incubation for 30 minutes at 4° C., followed by three wash steps.

[5] = target: T1, human CX3CR1; test: cell-based or functional assay
[6] = target: T1, human CX3CR1; test: periplasmic extract, A647-fractalkine competition FACS, CHO-huCX3CR1
Method in brief: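 Periplasmic VHH extracts competed with Alexa647-fractalkine (EC30, 1 nM; 3 nM initially) for binding to live or frozen CHO cells overexpressing human CX3CR1, 1 h at 4 C. FACS read on intact, PI-negative cells; percent block derived using no-VHH, irrelevant-VHH and excess cold fractalkine controls.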

[7] = target: T2, cynomolgus CX3CR1; test: FACS binding on cynomolgus CX3CR1 cells, anti-c-myc detection
Method: as §4

[8] = target: T2, cynomolgus CX3CR1; test: A647-fractalkine competition FACS, cynomolgus against human CX3CR1
Source text: as §1, §2

[9] = target: T1, human CX3CR1; test: A647-fractalkine competition FACS, CHO-huCX3CR1
Source text: as §1, §3

[10] = target: T2, cynomolgus CX3CR1; test: FACS binding, cynomolgus against human CX3CR1
Method: as §4

[11] = target: T1, human CX3CR1; test: A647-fractalkine competition FACS, BA/F3-huCX3CR1
Source text: as §1, §3

[12] = target: T1, human CX3CR1; test: FACS binding, HEK293T human CX3CR1
[13] = target: T1, human CX3CR1; test: A647-fractalkine competition FACS, CHO-huCX3CR1; remark: listed apart in the source
Source text: as §1
The inhibition of ligand binding to human CX3CR1 was investigated for the different formats as described in Example 4. For this characterization the BA/F3-huCX3CR1 cell line was used showing stable expression of the human CX3CR1 receptor. The alexa647 labeled ligand fractalkine was used at its EC30 concentration and thereby obtained IC50 values are reflective of the Ki values.

[14] = target: T2, cynomolgus CX3CR1; test: FACS binding, cynomolgus against human CX3CR1
[15] = target: T1, human CX3CR1; test: cell-based or functional assay; remark: listed apart in the source
[16] = target: T2, cynomolgus CX3CR1; test: FACS binding, HEK293T cynomolgus CX3CR1
[17] = target: T1, human CX3CR1; test: competition FACS, BA/F3-huCX3CR1; competitor alexa647-labeled 66B02
Source text: A competitive binding experiment was setup in order to determine whether the VHHs bind overlapping epitopes on CX3CR1. For this, the VHH 66B02 labeled with alexa647 was used in a competition FACS on the BA/F3 cells expressing huCX3CR1. Representative VHHs from the three functional families were used as competitors for the binding of the labeled 66B02.

Row | Binder | % block [1] | IC50 [1] | % block [2] | IC50 [2] | % block [3] | IC50 [3] | EC50 [4] | % block, fractalkine induced chemotaxis [5] | IC50, fractalkine induced chemotaxis [5] | % block [6] | EC50 [7] | ratio (cynomolgus/human IC50) [8] | % block [9] | IC50 [9] | ratio (cynomolgus/human EC50) [10] | % block [11] | IC50 [11] | EC50 [12] | % block [13] | IC50 [13] | also measured
1 | B1 | 94% | 5.3 nM | 91% | 64 nM | 94% | 5.3 nM | 0.84 nM | 81% | 70 nM | 87.8% | 50 nM | 12.2 | 102% | 2.7 nM | 59.6 | 99% | 5.5 nM |  |  |  | 
2 | B2 | 52% | 23 nM | 69% | 280 nM | 52% | 23 nM | 540 nM | 45% | 50 nM | 68.9% | 30 nM | 12.3 | 78% | 11 nM | 0.1 | 81% | 15 nM |  |  |  | 
3 | B3 | 96% | 6.8 nM | 94% | 67 nM | 96% | 6.8 nM | 35 nM | 84% | 80 nM | 93.8% | 110 nM | 9.85 | 104% | 2.1 nM | 3.3 | 100% | 4 nM |  |  |  | 
4 | B4 |  |  |  |  |  |  |  |  |  |  |  |  |  |  |  |  |  | 0.31 nM | 100% | 0.38 nM | ratio (cynomolgus/human EC50) [14]: 154; % block, fractalkine induced chemotaxis [15]: 101%; IC50, fractalkine induced chemotaxis [15]: 4 nM; EC50 [16]: 48 nM
5 | B5 |  |  |  |  |  |  |  |  |  |  |  |  |  |  |  |  |  | 2 nM | 91% | 0.7 nM | ratio (cynomolgus/human EC50) [14]: 3.3; % block, fractalkine induced chemotaxis [15]: 79%; IC50, fractalkine induced chemotaxis [15]: 20 nM; EC50 [16]: 6.8 nM
6 | B6 |  |  |  |  |  |  | 1.5 nM | 17% |  | 53.1% | 14 nM |  | 33% | 1.8 nM | 9 | 71% | 2.8 nM |  |  |  | % block [17]: 100%; IC50 [17]: 2.3 nM
